Reference: PMC6294249, “CryoEM reveals how the complement membrane attack complex ruptures lipid bilayers” (Nature Communications, 2018)

Columns and labels:
complement C6 = biological target: T1, complement C6 (human, UniProt P13671 22-934); test: cryo-EM structure; human MAC assembled on DOPC:DOPE liposomes by sequential addition of C5b6, C7, C8 and C9 (molar ratio 1:1:1:18, 1 h at 37 °C, then 4 °C overnight; 20 mM HEPES-NaOH, 150 mM NaCl, pH 7.4), solubilised in Cymal-5, purified by sucrose density centrifugation; open and closed conformations separated by 3D classification; conditions: both partners purified
T1 construct: complement component C6, human; 10 domains (TSP1, TSP2, LDL, MACPF, EGF, TSP3, CCP1, CCP2, FIM1, FIM2); It stood in the assay as part of the bought C5b6 complex; FIM1 and FIM2 were left out of the atomic model (weak or no density); source: bought: Complement Technology (as the C5b6 complex)

[1] = biological target: T2, complement C8 alpha chain (human, UniProt P07357 31-584, N-linked glycan at N407); test: as above; conditions: both partners purified
T2 construct: complement component C8 alpha chain, human; It stood in the assay as one chain of the bought C8 heterotrimer (α, β, γ); also called C8α; source: bought: Complement Technology (as C8)
T2 sequence (P07357 31-584): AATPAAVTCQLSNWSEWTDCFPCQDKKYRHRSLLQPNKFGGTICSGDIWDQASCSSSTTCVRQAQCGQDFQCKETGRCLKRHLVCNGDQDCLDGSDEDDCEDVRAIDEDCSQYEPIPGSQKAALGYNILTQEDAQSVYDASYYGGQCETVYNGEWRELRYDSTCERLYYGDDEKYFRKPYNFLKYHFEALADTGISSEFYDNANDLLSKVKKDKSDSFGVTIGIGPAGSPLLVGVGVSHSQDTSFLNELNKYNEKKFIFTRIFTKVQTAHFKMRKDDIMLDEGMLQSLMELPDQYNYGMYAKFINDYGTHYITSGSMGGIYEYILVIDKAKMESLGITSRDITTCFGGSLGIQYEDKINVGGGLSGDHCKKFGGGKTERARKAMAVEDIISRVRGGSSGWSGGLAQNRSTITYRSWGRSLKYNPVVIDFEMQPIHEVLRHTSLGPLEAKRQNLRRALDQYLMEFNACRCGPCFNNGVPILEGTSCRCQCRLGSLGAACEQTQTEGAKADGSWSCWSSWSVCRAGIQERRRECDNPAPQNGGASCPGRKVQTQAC

T1 sequence (P13671 22-934): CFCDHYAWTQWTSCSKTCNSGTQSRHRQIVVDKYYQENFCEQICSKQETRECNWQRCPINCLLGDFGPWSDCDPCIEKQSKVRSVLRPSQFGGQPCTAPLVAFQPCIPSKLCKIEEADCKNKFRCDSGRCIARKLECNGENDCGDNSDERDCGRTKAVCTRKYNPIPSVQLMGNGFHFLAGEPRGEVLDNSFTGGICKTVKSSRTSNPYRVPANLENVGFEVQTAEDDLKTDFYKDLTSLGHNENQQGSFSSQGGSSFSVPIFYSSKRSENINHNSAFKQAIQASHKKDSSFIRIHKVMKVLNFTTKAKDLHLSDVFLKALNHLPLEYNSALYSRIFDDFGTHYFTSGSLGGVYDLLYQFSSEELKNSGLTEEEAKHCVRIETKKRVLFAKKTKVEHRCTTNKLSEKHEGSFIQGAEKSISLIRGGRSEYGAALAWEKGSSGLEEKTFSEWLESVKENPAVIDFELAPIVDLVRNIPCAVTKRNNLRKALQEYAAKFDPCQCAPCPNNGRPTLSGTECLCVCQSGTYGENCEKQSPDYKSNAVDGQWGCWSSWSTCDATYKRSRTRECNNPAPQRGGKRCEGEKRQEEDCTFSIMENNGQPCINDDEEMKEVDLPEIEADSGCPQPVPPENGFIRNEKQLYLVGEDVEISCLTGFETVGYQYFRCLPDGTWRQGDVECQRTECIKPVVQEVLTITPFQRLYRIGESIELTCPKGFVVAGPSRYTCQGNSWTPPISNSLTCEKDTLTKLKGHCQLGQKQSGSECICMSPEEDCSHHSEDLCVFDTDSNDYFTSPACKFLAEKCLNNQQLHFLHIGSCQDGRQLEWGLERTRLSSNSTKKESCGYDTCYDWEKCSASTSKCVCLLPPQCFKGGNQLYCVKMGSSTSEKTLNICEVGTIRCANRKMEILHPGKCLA

- binding result (complement C6): binds
- binding result [1]: binds
B1: complement C9 (natural protein)
chain: not shown
modifications: N-linked glycans at N215, N256, N394; O-linked glycan at T427
notes: complement component C9, human; The model began from a homology model with C8β as template; source: bought: Complement Technology
